Assay results taken from US20160017348A1 (University of California, published 2016).

T1: H3K9me3 peptide (UniProt P59226 2-16, trimethyl-lysine at K9)
T1 peptide (looked up): ARTKQTARKSTGGKA

T2: H3(1-15)K9me2 peptide (UniProt P59226 2-16, dimethyl-lysine at K9)
T2 construct: range 2-16; Residues 1-15 are stated for the peptide in the crystal structure; also called H3K9me2 peptide; H3K9me2
T2 peptide (looked up): ARTKQTARKSTGGKA

T3: H3K9me1 peptide (UniProt P59226 2-16, monomethyl-lysine at K9)
T3 peptide (looked up): ARTKQTARKSTGGKA


Tests used:
[1] = target: T1, H3K9me3 peptide; assay: ITC; reference is the unmodified H3 peptide
[2] = target: T2, H3(1-15)K9me2 peptide; assay: ITC; reference is the unmodified H3 peptide
[3] = target: T3, H3K9me1 peptide; assay: ITC; reference is the unmodified H3 peptide
[4] = target: T4, NRPE1-Flag (Pol V) (Arabidopsis thaliana, UniProt Q5D869 1-1976); assay: immunoprecipitation and mass spectrometry
T4 construct: Bait for the purification of the Pol V complex; also called Flag-tagged Pol V; not shown: Flag tag
T4 sequence (Q5D869 whole entry): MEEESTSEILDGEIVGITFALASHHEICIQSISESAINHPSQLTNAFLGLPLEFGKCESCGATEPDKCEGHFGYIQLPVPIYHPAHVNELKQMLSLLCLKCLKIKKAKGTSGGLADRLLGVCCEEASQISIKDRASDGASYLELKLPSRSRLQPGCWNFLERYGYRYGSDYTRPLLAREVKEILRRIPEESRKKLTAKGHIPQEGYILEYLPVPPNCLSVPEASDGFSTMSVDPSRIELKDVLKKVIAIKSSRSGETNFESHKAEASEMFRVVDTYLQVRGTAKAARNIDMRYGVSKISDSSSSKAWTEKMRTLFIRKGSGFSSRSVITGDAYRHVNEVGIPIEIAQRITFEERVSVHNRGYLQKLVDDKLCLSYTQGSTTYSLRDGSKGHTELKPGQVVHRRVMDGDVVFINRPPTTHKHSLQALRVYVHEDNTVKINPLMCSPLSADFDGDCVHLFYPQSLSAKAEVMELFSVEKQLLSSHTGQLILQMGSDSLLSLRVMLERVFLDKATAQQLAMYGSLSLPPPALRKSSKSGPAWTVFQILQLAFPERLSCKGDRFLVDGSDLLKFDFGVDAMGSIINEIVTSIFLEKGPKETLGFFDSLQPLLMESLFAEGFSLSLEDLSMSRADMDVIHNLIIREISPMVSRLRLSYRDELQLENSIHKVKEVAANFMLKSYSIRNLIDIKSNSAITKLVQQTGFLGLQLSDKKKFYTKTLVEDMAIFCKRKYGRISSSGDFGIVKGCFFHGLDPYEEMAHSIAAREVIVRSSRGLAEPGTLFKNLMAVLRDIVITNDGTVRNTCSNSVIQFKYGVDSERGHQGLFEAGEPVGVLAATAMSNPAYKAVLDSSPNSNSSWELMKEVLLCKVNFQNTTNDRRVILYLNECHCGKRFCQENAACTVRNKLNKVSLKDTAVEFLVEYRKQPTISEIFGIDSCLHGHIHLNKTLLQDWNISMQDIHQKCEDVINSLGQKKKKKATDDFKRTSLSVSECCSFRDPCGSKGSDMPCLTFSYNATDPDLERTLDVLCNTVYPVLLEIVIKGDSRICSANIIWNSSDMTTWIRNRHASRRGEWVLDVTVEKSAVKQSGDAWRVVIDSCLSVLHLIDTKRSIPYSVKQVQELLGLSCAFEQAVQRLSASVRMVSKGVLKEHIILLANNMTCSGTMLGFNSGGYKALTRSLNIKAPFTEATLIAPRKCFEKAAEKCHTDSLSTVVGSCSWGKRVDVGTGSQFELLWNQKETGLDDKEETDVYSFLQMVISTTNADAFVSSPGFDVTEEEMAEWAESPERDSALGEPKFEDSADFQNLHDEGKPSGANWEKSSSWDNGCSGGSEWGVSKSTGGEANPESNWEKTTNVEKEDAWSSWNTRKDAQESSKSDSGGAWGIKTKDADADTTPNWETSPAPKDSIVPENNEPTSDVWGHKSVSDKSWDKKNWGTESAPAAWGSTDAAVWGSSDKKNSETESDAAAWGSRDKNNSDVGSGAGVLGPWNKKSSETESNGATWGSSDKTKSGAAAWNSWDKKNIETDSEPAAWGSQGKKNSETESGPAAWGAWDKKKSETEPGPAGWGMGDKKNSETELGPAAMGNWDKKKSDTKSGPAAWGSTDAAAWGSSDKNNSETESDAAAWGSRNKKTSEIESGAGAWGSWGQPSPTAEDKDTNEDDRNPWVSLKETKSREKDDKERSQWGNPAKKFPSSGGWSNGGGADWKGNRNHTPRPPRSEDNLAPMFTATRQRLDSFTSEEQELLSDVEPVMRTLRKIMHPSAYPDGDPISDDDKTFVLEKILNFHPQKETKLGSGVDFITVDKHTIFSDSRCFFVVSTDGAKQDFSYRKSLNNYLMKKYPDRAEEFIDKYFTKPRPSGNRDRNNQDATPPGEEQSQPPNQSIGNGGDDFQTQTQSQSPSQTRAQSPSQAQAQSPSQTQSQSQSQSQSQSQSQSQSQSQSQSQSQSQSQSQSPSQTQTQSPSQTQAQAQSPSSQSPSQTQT

fold higher affinity than with unmodified H3 peptides [1] [fold]	fold higher affinity than with unmodified H3 peptides [2] [fold]	fold higher affinity than with unmodified H3 peptides [3] [fold]	binding result [4]	Binder
~17	~17	~17	–	SHH1 SAWADEE domain (residues 125-258) (other) ADLAFEAKSARDYAWYDVSSFLTYRVLRTGELEVRVRFSGFDNRHDEWVNVKTSVRERSIPVEPSECGRVNVGDLLLCFQEREDQALYCDGHVLNIKRGIHDHARCNCVFLVRYELDNTEESLGLERICRRPEE
–	–	–	no binding	SUVH9 (other, Endogenous protein searched for by mass spectrometry in Pol V purifications; also called SUVH2/9 peptides) MGSSHIPLDPSLNPSPSLIPKLEPVTESTQNLAFQLPNTNPQALISSAVSDFNEATDFSSDYNTVAESARSAFAQRLQRHDDVAVLDSLTGAIVPVEENPEPEPNPYSTSDSSPSVATQRPRPQPRSSELVRITDVGPESERQFREHVRKTRMIYDSLRMFLMMEEAKRNGVGGRRARADGKAGKAGSMMRDCMLWMNRDKRIVGSIPGVQVGDIFFFRFELCVMGLHGHPQSGIDFLTGSLSSNGEPIATSVIVSGGYEDDDDQGDVIMYTGQGGQDRLGRQAEHQRLEGGNLAMERSMYYGIEVRVIRGLKYENEVSSRVYVYDGLFRIVDSWFDVGKSGFGVFKYRLERIEGQAEMGSSVLKFARTLKTNPLSVRPRGYINFDISNGKENVPVYLFNDIDSDQEPLYYEYLAQTSFPPGLFVQQSGNASGCDCVNGCGSGCLCEAKNSGEIAYDYNGTLIRQKPLIHECGSACQCPPSCRNRVTQKGLRNRLEVFRSLETGWGVRSLDVLHAGAFICEYAGVALTREQANILTMNGDTLVYPARFSSARWEDWGDLSQVLADFERPSYPDIPPVDFAMDVSKMRNVACYISHSTDPNVIVQFVLHDHNSLMFPRVMLFAAENIPPMTELSLDYGVVDDWNAKLAICN
–	–	–	no binding	SUVH2 (other, Endogenous protein, detected or searched for by mass spectrometry in immunoprecipitates; also called SUVH2 peptides) MSTLLPFPDLNLMPDSQSSTAGTTAGDTVVTGKLEVKSEPIEEWQTPPSSTSDQSANTDLIAEFIRISELFRSAFKPLQVKGLDGVSVYGLDSGAIVAVPEKENRELIEPPPGFKDNRVSTVVVSPKFERPRELARIAILGHEQRKELRQVMKRTRMTYESLRIHLMAESMKNHVLGQGRRRRSDMAAAYIMRDRGLWLNYDKHIVGPVTGVEVGDIFFYRMELCVLGLHGQTQAGIDCLTAERSATGEPIATSIVVSGGYEDDEDTGDVLVYTGHGGQDHQHKQCDNQRLVGGNLGMERSMHYGIEVRVIRGIKYENSISSKVYVYDGLYKIVDWWFAVGKSGFGVFKFRLVRIEGQPMMGSAVMRFAQTLRNKPSMVRPTGYVSFDLSNKKENVPVFLYNDVDGDQEPRHYEYIAKAVFPPGIFGQGGISRTGCECKLSCTDDCLCARKNGGEFAYDDNGHLLKGKHVVFECGEFCTCGPSCKSRVTQKGLRNRLEVFRSKETGWGVRTLDLIEAGAFICEYAGVVVTRLQAEILSMNGDVMVYPGRFTDQWRNWGDLSQVYPDFVRPNYPSLPPLDFSMDVSRMRNVACYISHSKEPNVMVQFVLHDHNHLMFPRVMLFALENISPLAELSLDYGLADEVNGKLAICN
